System: Ovalbumin-specific OTII T cells
Test: Example 5: adoptive transfer of ovalbumin-specific OTII T cells, Foxp3 expression
Format: in vivo, mice
Details: OTII T cells adoptively transferred prior to treatment
Protocol: However, expansion of antigen-specific Treg can be more desirable than expansion of total Treg. The ability of ImmTOR plus antigen combined with IL-2 mutein to induce and/or expand antigen-specific Treg was evaluated. Ovalbumin-specific OTII T cells were adoptively transferred into mice prior to treatment with ovalbumin and ImmTOR and/or IL-2 mutein.

B1: ovalbumin (protein, UniProt P01012 2-386, looked up)
Ovalbumin: GSIGAASMEFCFDVFKELKVHHANENIFYCPIAIMSALAMVYLGAKDSTRTQINKVVRFDKLPGFGDSIEAQCGTSVNVHSSLRDILNQITKPNDVYSFSLASRLYAEERYPILPEYLQCVKELYRGGLEPINFQTAADQARELINSWVESQTNGIIRNVLQPSSVDSQTAMVLVNAIVFKGLWEKAFKDEDTQAMPFRVTEQESKPVQMMYQIGLFRVASMASEKMKILELPFASGTMSMLVLLPDEVSGLEQLESIINFEKLTEWTSSNVMEERKIKVYLPRMKMEEKYNLTSVLMAMGITDVFSSSANLSGISSAESLKISQAVHAAHAEINEAGREVVGSAEAGVDAASVSEEFRADHPFLFCIKHIATNAVLFFGRCVSP
notes: model antigen
  percentage of Foxp3+OTII cells: ~6%

Reference: US20230263906A1, “HIGH AFFINITY IL-2 RECEPTOR AGONISTS AND SYNTHETIC NANOCARRIER DOSE SPARING” (Selecta Biosciences, Inc., priority 2022, published 2023)
